Assay results: the DeepSol protein solubility set

experiment: soluble on expression in E. coli; label from the status in PepcDB or PDB records

Soluble on expression in E. coli, not soluble:
MTAPFFPRILGAVAFLNQETEPLTMNLQHHFLIAMPALQDPIFRRSVVYICEHNTNGAMGIIVNKPLENLKIEGILEKLKITPEPRDESIRLDKPVMLGGPLAEDRGFILHTPPSNFASSIRISDNTVMTTSRDVLETLGTDKQPSDVLVALGYASWEKGQLEQEILDNAWLTAPADLNILFKTPIADRWREAAKLIGVDILTMPGVAGHALEHHHHHH, MSLNTLKEVNKIIQYLNNIHNEPIGNQARVLCGKDAAKHLFLVASGADSLSIGEYEILSQIRSTIDMFKKLGFSGKYLQIFFERAIKVGRKVREETSISKGKVGIYSLAIDEAKKRFNDFYDRRILVIGAGEMAQKITSMLHNEGAKDVTIMNRTIEKAKQLALKFGYNYEKLDLDKLGNFDVAFISIYHENLRLENKWNTLIVDITVPPLFTGNNVITLEELERISNLNFKAREEELAKINKLVEDGINELLYDYKKEIYTEFMSKIMKRIETIRENEILRAYKELEKEGHHHHHH, MLAVHRPSSAVSDGDSVQIPMMIASFQKRFPSLSRDSTAARFHTHEVGPNQCCSAVIQEISAPISTVWSVVRRFDNPQAYKHFLKSCSVIGGDGDNVGSLRQVHVVSGLPAASSTERLDILDDERHVISFSVVGGDHRLSNYRSVTTLHPSPISGTVVVESYVVDVPPGNTKEETCDFVDVIVRCNLQSLAKIAENTAAESKKKMSL, MAIESGYILTTPCKNEEKSLPELAESIINQTITPKLWLIINDNSTDNSAKILRDIETKYNWIRVVTSEGQKRDLSFHYAEVVRYGLSLSLEISSAEKIPVEYIGLIDADMILEKNFFEKMIDRFEQDPNLGVASGSTAYFEAENLVTEKGRDNLPIGGLRVWRRECLIETGGFPLSYSADSVSNVLALLHGWETKKFEDIIGIQTRRTGSAEGLWKGYITKGESDYYRDYHPVYVLSKFIKYSFTHPFYIGIAYMEGYINGIVKIKKKICIPEVRRYYRKKHLEIGRYYAGKFKFKLLEHHHHHH, PKISQLVAPFELTQNNNDKAILLIHGLTDSPFSFHDLSQFFYQQGFTVRTLLLPGHGVAPSELLNTDYQAWQQAATFAIDQTLNDYQQVYLGGLSTGGALIFNYLMQQKQVDEKIKGLFMWSPATKAKSDLAWLAQYIDGIPFVDWIDLDADIDFAKYESFPYNAGAQVHALMNLVVGEGANASRQMHDIPLFVVASEHDQTIDTAHTLQLVQQWQLAS, MEKVGEDEEKTIEEANNSTEETKSDKEEERIKGTIADQVDPVDSTEEGSTGPSNSHTVVSKDHDFSESDMEDEEQVLEFFRRNHGFSPEVTKRNNFPYVNNSERMVLQFQEDTSAETEQTNEMFHSLNDSNEILEGTKSSSASDEDTEDSSSNSDLDSSLSRYYFDGSLPVSAHVEEFETHQDESLVPKDENQVCNPNWWGMI, MGSDKIHHHHHHMNEQFERLMVRVESLMARIESVLPQPLSAPDWTASVAYRYRKRGSGHGSLEPVRHLGAMRLTDLKEIDGQKDRIRRNTEQFVSGKPANNVLLTGSRGTGKSSLIKACLNEYSARGLRLIEVDKADLTDLPDIVDVVSGLPEKFIVFCDDLSFEEGEPGYKALKSILDGSIAAATPNVLIYATSNRRHLLPEYMMENLTYTHTEDGEVHPGEVVEEKISLSERFGLWVSFYPFSQDEYLTIVAQWLSSFGVNAEAISAARPASLVWALERGSRSGRVAYQFARDYAGQHAGTVQ

Soluble on expression in E. coli, soluble:
PHSMEPQVTLNVTFKNEIQSFLVSDPENTTWADIEAMVKVSFDLNTIQIKYLDEENEEVSINSQGEYEEALKMAVKQGNQLQMQVHEGHHVVDEAPPPVVGAKRLAARAGKKPLAHYSSLVRVLGSDMKTPEDPAVQSFPLVPCDTDQPQDKPPDWFTSYLETFREQVVNETVEKLEQKLHEKLVLQNPSLGSCPSEVSMPTSEETLFLPENQFSWHIACNNCQRRIVGVRYQCSLCPSYNICEDCEAGPYGHDTNHVLLKLRRPVVGSSEPFCHSKYSTPRLPAALEQVRLQKQVDKNFLKAEKQRLRAEKKQRKAEVKELKKQLKLHRKIHLWNSIHGLQSPKSPLGRPESLLQSNTLMLPLQPCTSVMPMLSAAFVDENLPDGTHLQPGTKFIKHWRMKNTGNVKWSADTKLKFMWGNLTLASTEKKDVLVPCLKAGHVGVVSVEFIAPALEGTYTSHWRLSHKGQQFGPRVWCSIIVDPFPSEESPDNIEKGMISSSKTDDLTCQQEETFLLAKEERQLGEVTEQTEGTAACIPQKAKNVASERELYIPSVDLLTAQDLLSFELLDINIVQELERVPHNTPVDVTPCMSPLPHDSPLIEKPGLGQIEEENEGAGFKALPDSMVSVKRKAENIASVEEAEEDLSGTQFVCETVIRSLTLDAAPDHNPPCRQKSLQMTFALPEGPLGNEKEEIIHIAEEEAVMEEEEDEEDEEEEDELKDEVQSQSSASSEDYIIILPECFDTSRPLGDSMYSSALSQPGLERGAEGKPGVEAGQEPAEAGERLPGGENQPQEHSISDILTTSQTLETVPLIPEVVELPPSLPRSSPCVHHHGSPGVDLPVTIPEVSSVPDQIRGEPRGSSGLVNSRQKSYDHSRHHHGSSIAGGLVKGALSVAASAYKALFAGPPVTAQPIISEDQTAALMAHLFEMGFCDRQLNLRLLKKHNYNILQVVTELLQLNNNDWYSQRY, MEPPLILIVEDEKDIARFIELELQAEGYRTEVAHDGITGLSKFREVSPNLVILDLMLPVMDGIEVAKRIRKTSNVPILILTAKDRVEDKVAGLDAGADDYLVKPFSIEELLARVRAHLRRVTPAITGEIRVADLIINLEGREVFRGNRRIELSNKEFELLELLAKNPGKVFSRYEIEEKVWPGYQGGSNVVDVYIGYLRKKLEAGGERRLIHTVRGVGYVLRED, MSEGITDIEESQIQTNYDKVVYKFDDMELDENLLRGVFGYGFEEPSAIQQRAIMPIIEGHDVLAQAQSGTGKTGTFSIAALQRIDTSVKAPQALMLAPTRELALQIQKVVMALAFHMDIKVHACIGGTSFVEDAEGLRDAQIVVGTPGRVFDNIQRRRFRTDKIKMFILDEADEMLSSGFKEQIYQIFTLLPPTTQVVLLSATMPNDVLEVTTKFMRNPVRILVKKDELTLEGIKQFYVNVEEEEYKYECLTDLYDSISVTQAVIFCNTRRKVEELTTKLRNDKFTVSAIYSDLPQQERDTIMKEFRSGSSRILISTDLLARGIDVQQVSLVINYDLPANKENYIHRIGRGGRFGRKGVAINFVTNEDVGAMRELEKFYSTQIEELPSDIATLLN, MAQLFFRYGAMNSGKTIEILKVAHNYEEQDKSVIILTSGLDNRDGVGYVASRIGLKREATPVFDDTNIFEIVKQTNPDAACVLIDEAQFLKKHHVLELADIVDELKIPVMTFGLKNDFRNELFEGSKYLLLYADKIEEMKTICWFCRKKAIMNLRFHDGQPVYEGEQVQIGGNEAYYPVCRHHYFYPPKLTKLEHHHHHH, SLSWDSVVERIRIFLVESPIKMARLQGVGNVKGSVKRVLLEVTSADGIVGWGEAAPWEVFTGTPEAAFSALDIYLRPLILGAPIKRVRELMARMDKMLVGHGEAKAAVEMALLDILGKATGLSVADLLGGRVRDRIPLSFSIADPDFDADLERMRAMVPAGHTVFKMKTGVKPHAEELRILETMRGEFGERIDLRLDFNQALTPFGAMKILRDVDAFRPTFIEQPVPRRHLDAMAGFAAALDTPILADESCFDAVDLMEVVRRQAADAISVKIMKCGGLMKAQSLMAIADTAGLPGYGGTLWEGGIALAAGTQLIAATPGISLGCEFYMPHHVLTEDVLEERIANSAGHVIVPDGPGLGISISEASLRGNAKILAER, SSGLVPRGSHMSEMIYGIHAVQALLERAPERFQEVFILKGREDKRLLPLIHALESQGVVIQLANRQYLDEKSDGAVHQGIIARVKPGRQYQENDLPDLIASLDQPFLLILDGVTDPHNLGACLRSADAAGVHAVIVPKDRSAQLNATAKKVACGAAESVPLIRVTNLARTMRMLQEENIWIVGTAGEADHTLYQSKMTGRLALVMGAEGEGMRRLTREHCDELISIPMAGSVSSLNVSVATGICLFEAVRQRS, SFSSLPLTGENPGAWALVRDNSAKGITAGSGSQQTTYDPTRTEAALTASTTFALRRYDLAGRALYDLDFSKLNPQTPTRDQTGQITFNPFGGFGLSGAAPQQWNEVKNKVPVEVAQDPSNPYRFAVLLVPRSVVYYEQLQRGLGLPQQRTESGQNTSTTGAMFGLKVKNAEADTAKSNEKLQGAEATGSSTTSGSGQSTQRGGSSGDTKVKALKIEVKKKSDSEDNGQLQLEKNDLANAPIKRSEESGQSVQLKADDFGTALSSSGSGGNSNPGSPTPWRPW, MLGFNGERLDPASGAFHLGNGYRAYSPALMRFHCPDSLSPFGASGVNPYAYCAGDPANRADPSGHLSWQAWTGIGLAVASLALAAFTAGTSIIASGGIVAALESASAITLAEGGLAVVSDMTAIACGAMEASDPQAAAALSWVSLACGAMGMVHAGYGAVRGIDRKLGAFLQENSRFLGKITRGERDSLGIPLGGGLTKCFRPASEMEGASAGIALGRLHRSSSTPDMEAFLALPAAKRKRIGSGVSGVVYEAGRGWVVKIAIDPLPIETMEREAEIFRAVHGPRSALVAENMLWMKRIPGVPVNTLNLLADEKAEMWQKTLAEVKRLQEMGIHHGDPSWNNLLFDQQTGTVSFIDFGKSRYLDGFAPATLEHHHHHH, MAHHHHHHMTESRWITEALVQFSASPIWLTPIDNFVDDNCCIFSNESEMQLEYTVAHNKFKKLIDSLLTCFLMELGVSMETAVEALQSSLAVSVQTSEGLSEQQAAKKLLKQIFNADNFSHFHTMMVKRNLELDILANAALSSDGVCGNGGAALSTEEVEKETRARARVQRAIDVNGDVSEDDALRRAIEVSLQDGTAQQQVQAYRKACIQEDANLQLTAVEHQANSEKAQLEAVLQTQSAQNLPEGEHFRQNHVEPINKQKESQLQPIRAHAMSGKGQKGCDEAEPQKANFNSPESPCPLPALQVPAAASAPVAAPVSVPALPSIGQRQAALPSIPSTITASVLKSAPSAPAHQAHGTAVSATPAPTPIPTKEELEKRAQYMREQREKLLARNRASRQEQLNTFLQNNSSSTTTSSSAALAATGAAQSVTVEIARRLRGDLIGEARKSSG, MMKFSVIVPTYNSEKYITELLNSLAKQDFPKTEFEVVVVDDCSTDQTLQIVEKYRNKLNLKVSQLETNSGGPGKPRNVALKQAEGEFVLFVDSDDYINKETLKDAAAFIDEHHSDVLLIKMKGVNGRGVPQSMFKETAPEVTLLNSRIIYTLSPTKIYRTALLKDNDIYFPEELKSAEDQLFTMKAYLNANRISVLSDKAYYYATKREGEHMSSAYVSPEDFYEVMRLIAVEILNADLEEAHKDQILAEFLNRHFSFSRTNGFSLKVKLEEQPQWINALGDFIQAVPERVDALVMSKLRPLLHYARAKDIDNYRTVEESYRQGQYYRFDIVDGKLNIQFNEGEPYFEGIDIAKPKVKMTAFKFDNHKIVTELTLNEFMIGEGHYDVRLKLHSRNKKHTMYVPLSVNANKQYRFNIMLEDIKAYLPKEKIWDVFLEVQIGTEVFEVRVGNQRNKYAYTAETSALIHLNNDFYRLTPYFTKDFNNISLYFTAITLTDSISMKLKGKNKIILTGLDRGYVFEEGMASVVLKDDMIMGMLSQTSENEVEILLSKDIKKRDFKNIVKLNTAHMTYSLKLEHHHHHH, PSHSGAAIFEKVSGIIAINEDVSPAELTWRSTDGDKVHTVVLSTIDKLQATPASSEKMMLRLIGKVDESKKRKDNEGNEVVPKPQRHMFSFNNRTVMDNIKMTLQQIISRYKDAD
